Here are results for three substances from publication PMC5551413.

In test [1] the target is spNadC Δ69A deletion mutant (Streptococcus pyogenes). The test is described as follows: crystal structure.
Test [2] concerns the target Streptococcus pyogenes NH3-dependent NAD+ synthetase (spNadE) (Streptococcus pyogenes). In words: crystal structure.
Test [3] shares this target. In words: SEC.
Test [4] shares this target. The test is described as follows: dynamic light scattering.
Test [5] has as its target Streptococcus pyogenes quinolinate phosphoribosyltransferase (spNadC) (Streptococcus pyogenes). The test is described as follows: SEC.
Test [6] shares this target. The test is described as follows: dynamic light scattering.

Consider spNadC Δ69A deletion mutant (enzyme), for which, in test [1], the stoichiometry N stood at 6.

On to “Streptococcus pyogenes NH3-dependent NAD+ synthetase (spNadE) (enzyme)”, for which the stoichiometry N in test [2], in test [3] and in test [4] was 2 throughout.

In the case of “Streptococcus pyogenes quinolinate phosphoribosyltransferase (spNadC) (enzyme)”, the stoichiometry N in test [5] and in test [6] was 6 throughout.

The stoichiometry N is a count of units in the complex or per binding partner.
